Assay results reported in publication PMC8888459 (2022).
Each block holds one binder with its values, some of them ahead of it.

B1: Yah1-GST fusion protein (natural protein)
chain: IAAHLLRTSPSLLTRTTTTTRFLPFSTSSFLNHGHLKKPKPGEELKITFILKDGSQKTYEVCEGETILDIAQGHNLDMEGACGGSCACSTCHVIVDPDYYDALPEPEDDENDMLDLAYGLTETSRLGCQIKMSKDIDGIRVALPQMTRNVNNNDFS

Assays:
[1] = target: T1, NIA–Isu1 complex with C. thermophilum Isu1 (S. cerevisiae | E. coli (endogenous in …, UniProt P25374 37-497; Q6Q560 1-94; P0A6A8 1-78); assay: BLI; KD2 of 2:1 heterogeneous ligand fit (57%), second site
[2] = target: T1, NIA–Isu1 complex with C. thermophilum …; assay: BLI; kd2 of 2:1 fit, second site
[3] = target: T1, NIA–Isu1 complex with C. thermophilum …; assay: BLI; KD1 of 2:1 heterogeneous ligand fit (43%)
[4] = target: T1, NIA–Isu1 complex with C. thermophilum …; assay: BLI; KD1 of 2:1 heterogeneous ligand fit (46%)
[5] = target: T1, NIA–Isu1 complex with C. thermophilum …; assay: BLI; kd1 of 2:1 fit
[6] = target: T1, NIA–Isu1 complex with C. thermophilum …; assay: BLI; kd2 of 2:1 fit, second site; remark: listed apart in the source
[7] = target: T1, NIA–Isu1 complex with C. thermophilum …; assay: BLI; kd1 of 2:1 fit; remark: listed apart in the source
[8] = target: T1, NIA–Isu1 complex with C. thermophilum …; assay: BLI; KD2 of 2:1 heterogeneous ligand fit (54%), second site
[9] = target: T2, NIA complex (Nfs1–Isd11–ACPEc) (S. cerevisiae | E. coli (endogenous in …, UniProt P25374 37-497; Q6Q560 1-94; P0A6A8 1-78); assay: BLI; kd1 of 2:1 fit
T2 chain 1: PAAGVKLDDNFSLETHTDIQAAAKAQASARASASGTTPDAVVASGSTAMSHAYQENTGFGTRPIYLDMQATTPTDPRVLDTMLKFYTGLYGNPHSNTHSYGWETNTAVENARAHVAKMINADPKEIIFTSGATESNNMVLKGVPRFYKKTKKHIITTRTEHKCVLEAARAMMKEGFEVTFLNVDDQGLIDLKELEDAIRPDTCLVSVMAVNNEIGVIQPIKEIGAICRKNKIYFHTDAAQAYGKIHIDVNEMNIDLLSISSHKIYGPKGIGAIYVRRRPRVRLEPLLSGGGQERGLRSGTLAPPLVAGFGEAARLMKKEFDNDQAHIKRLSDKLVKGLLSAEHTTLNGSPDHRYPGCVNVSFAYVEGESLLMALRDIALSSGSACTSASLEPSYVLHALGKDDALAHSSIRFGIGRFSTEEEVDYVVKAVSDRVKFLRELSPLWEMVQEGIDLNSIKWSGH
T2 chain 2: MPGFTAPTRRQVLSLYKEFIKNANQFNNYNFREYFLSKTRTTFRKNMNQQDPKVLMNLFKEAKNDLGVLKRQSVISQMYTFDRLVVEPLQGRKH
T2 chain 3: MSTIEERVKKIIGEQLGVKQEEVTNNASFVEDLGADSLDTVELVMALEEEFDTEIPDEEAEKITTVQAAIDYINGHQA

[10] = target: T2, NIA complex (Nfs1–Isd11–ACPEc); assay: BLI; KD1 of 2:1 heterogeneous ligand fit (61%)
[11] = target: T2, NIA complex (Nfs1–Isd11–ACPEc); assay: BLI; kd2 of 2:1 fit, second site
[12] = target: T2, NIA complex (Nfs1–Isd11–ACPEc); assay: BLI; KD2 of 2:1 heterogeneous ligand fit (39%), second site
Yah1-GST fusion protein [13] = target: B1; assay: BLI; anaerobic, reduced Yah1 (Fig. 6C); kd2 of 2:1 fit, second site
Yah1-GST fusion protein [14] = target: B1; assay: BLI; anaerobic, reduced Yah1 (Fig. 6C); kd1 of 2:1 fit
Yah1-GST fusion protein [15] = target: B1; assay: BLI; KD1 of 2:1 heterogeneous ligand fit (38%)
Yah1-GST fusion protein [16] = target: B1; assay: BLI; KD2 of 2:1 heterogeneous ligand fit (62%), second site
Yah1-GST fusion protein [17] = target: B1; assay: BLI; anaerobic, reduced Yah1; KD1 of 2:1 fit (37%)
Yah1-GST fusion protein [18] = target: B1; assay: BLI; kd2 of 2:1 fit, second site
Yah1-GST fusion protein [19] = target: B1; assay: BLI; anaerobic, reduced Yah1 (Fig. 6C); KD2 of 2:1 fit (55%), second site
Yah1-GST fusion protein [20] = target: B1; assay: BLI; anaerobic, reduced Yah1; KD2 of 2:1 fit (63%), second site
Yah1-GST fusion protein [21] = target: B1; assay: BLI; kd1 of 2:1 fit
Yah1-GST fusion protein [22] = target: B1; assay: BLI; anaerobic, reduced Yah1; kd2 of 2:1 fit, second site
Yah1-GST fusion protein [23] = target: B1; assay: BLI; anaerobic, reduced Yah1; kd1 of 2:1 fit
Yah1-GST fusion protein [24] = target: B1; assay: BLI; anaerobic, reduced Yah1 (Fig. 6C); KD1 of 2:1 fit (45%)

Binder: B1
Kd [1]: 800 nM | koff [2]: 0.0403 s⁻¹ | Kd [3]: 184 nM | Kd [4]: 228 nM | koff [5]: 0.00118 s⁻¹ | koff [6]: 0.109 s⁻¹ | koff [7]: 0.00167 s⁻¹ | Kd [8]: 212 nM

koff [9]: 2.08e-07 s⁻¹ | Kd [10]: 0.307 nM | koff [11]: 0.00156 s⁻¹ | Kd [12]: 544 nM
B2: Yah1 (untagged, holo) (natural protein)
chain: IAAHLLRTSPSLLTRTTTTTRFLPFSTSSFLNHGHLKKPKPGEELKITFILKDGSQKTYEVCEGETILDIAQGHNLDMEGACGGSCACSTCHVIVDPDYYDALPEPEDDENDMLDLAYGLTETSRLGCQIKMSKDIDGIRVALPQMTRNVNNNDFS

koff (Yah1-GST fusion protein [13]): 0.00777 s⁻¹ | koff (Yah1-GST fusion protein [14]): 4.99e-07 s⁻¹ | Kd (Yah1-GST fusion protein [15]): 325 nM | Kd (Yah1-GST fusion protein [16]): 660 nM | Kd (Yah1-GST fusion protein [17]): 0.0165 nM | koff (Yah1-GST fusion protein [18]): 0.0375 s⁻¹ | Kd (Yah1-GST fusion protein [19]): 19.2 nM | Kd (Yah1-GST fusion protein [20]): 15.3 nM | koff (Yah1-GST fusion protein [21]): 0.000977 s⁻¹ | koff (Yah1-GST fusion protein [22]): 0.00421 s⁻¹ | koff (Yah1-GST fusion protein [23]): 4.05e-07 s⁻¹ | Kd (Yah1-GST fusion protein [24]): 0.02 nM
B3: NIA–Isu1 complex with S. cerevisiae Isu1 (complex)
chain 1: PAAGVKLDDNFSLETHTDIQAAAKAQASARASASGTTPDAVVASGSTAMSHAYQENTGFGTRPIYLDMQATTPTDPRVLDTMLKFYTGLYGNPHSNTHSYGWETNTAVENARAHVAKMINADPKEIIFTSGATESNNMVLKGVPRFYKKTKKHIITTRTEHKCVLEAARAMMKEGFEVTFLNVDDQGLIDLKELEDAIRPDTCLVSVMAVNNEIGVIQPIKEIGAICRKNKIYFHTDAAQAYGKIHIDVNEMNIDLLSISSHKIYGPKGIGAIYVRRRPRVRLEPLLSGGGQERGLRSGTLAPPLVAGFGEAARLMKKEFDNDQAHIKRLSDKLVKGLLSAEHTTLNGSPDHRYPGCVNVSFAYVEGESLLMALRDIALSSGSACTSASLEPSYVLHALGKDDALAHSSIRFGIGRFSTEEEVDYVVKAVSDRVKFLRELSPLWEMVQEGIDLNSIKWSGH
chain 2: MPGFTAPTRRQVLSLYKEFIKNANQFNNYNFREYFLSKTRTTFRKNMNQQDPKVLMNLFKEAKNDLGVLKRQSVISQMYTFDRLVVEPLQGRKH
chain 3: MSTIEERVKKIIGEQLGVKQEEVTNNASFVEDLGADSLDTVELVMALEEEFDTEIPDEEAEKITTVQAAIDYINGHQA
chain 4: SSITKRLYHPKVIEHYTHPRNVGSLDKKLPNVGTGLVGAPACGDVMRLQIKVNDSTGVIEDVKFKTFGCGSAIASSSYMTELVQGMTLDDAAKIKNTEIAKELSLPPVKLHCSMLAEDAIKAAIKDYKSKRNTPTMLS
